# Laboratory results from patent US20200222503A1 (published 2020).
# T1: OX40 on HeLa cells (HeLa-OX40) (Homo sapiens (Human), UniProt P43489 29-277)
# T1 sequence: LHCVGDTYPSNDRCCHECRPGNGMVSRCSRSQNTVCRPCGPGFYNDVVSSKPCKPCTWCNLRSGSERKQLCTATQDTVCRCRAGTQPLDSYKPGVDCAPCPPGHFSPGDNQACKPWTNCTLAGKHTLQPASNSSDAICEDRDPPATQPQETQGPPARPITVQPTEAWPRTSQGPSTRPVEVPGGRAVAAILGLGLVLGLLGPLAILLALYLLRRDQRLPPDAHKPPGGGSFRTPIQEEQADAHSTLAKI
# T2: FcRn-His (Example 11) (Mus musculus (Mouse), UniProt Q61559 22-297; P01887 21-119)
# T2 construct: copies: 1 + 1
# T2 sequence (alpha): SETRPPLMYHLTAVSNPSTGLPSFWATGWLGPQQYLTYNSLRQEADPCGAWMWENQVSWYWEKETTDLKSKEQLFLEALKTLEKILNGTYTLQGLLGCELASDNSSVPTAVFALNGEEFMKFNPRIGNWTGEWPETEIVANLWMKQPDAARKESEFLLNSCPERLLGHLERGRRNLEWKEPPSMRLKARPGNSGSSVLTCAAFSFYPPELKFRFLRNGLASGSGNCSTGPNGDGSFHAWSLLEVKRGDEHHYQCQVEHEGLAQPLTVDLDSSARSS
# T2 sequence (beta): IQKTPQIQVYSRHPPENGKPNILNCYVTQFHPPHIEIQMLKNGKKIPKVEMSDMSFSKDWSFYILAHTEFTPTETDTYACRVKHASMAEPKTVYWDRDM
# B1: murine CD172a(SIRPα)-Fc-CD40L chimeric protein (Fc fusion, UniProt P97797 32-373, looked up)
# chain: KELKVTQPEKSVSVAAGDSTVLNCTLTSLLPVGPIRWYRGVGPSRLLIYSFAGEYVPRIRNVSDTTKRNNMDFSIRISNVTPADAGIYYCVKFQKGSSEPDTEIQSGGGTEVYVLAKPSPPEVSGPADRGIPDQKVNFTCKSHGFSPRNITLKWFKDGQELHPLETTVNPSGKNVSYNISSTVRVVLNSMDVNSKVICEVAHITLDRSPLRGIANLSNFIRVSPTVKVTQQSPTSMNQVNLTCRAERFYPEDLQLIWLENGNVSRNDTPKNLTKNTDGTYNYTSLFLVNSSAHREDVVFTCQVKHDQQPAITRNHTVLGFAHSSDQGSMQTFPDNNATHNWNHRRLDKVEEEVNLHEDFVFIKKLKRCNKGEGSLSLLNCEEMRRQFEDLVKDITLNKEEKKENSFEMQRGDEDPQIAAHVVSEANSNAASVLQWAKKGYYTMKSNLVMLENGKQLTVKREGLYYVYTQVTFCSNREPSSQRPFIVGLWLKPSSGSERILLKAANTHSSSQLCEQQSVHLGGVFELQAGASVFVNVTEASQVIHRVGFSSFGLLKL
# notes: extracellular domain; also called mCD172a(SIRPα)-Fc-CD40L; not shown: Fc linker of the murine construct is not specified
# B2: recombinant murine CD40 protein (receptor, UniProt P27512 24-193, looked up)
# chain: VTCSDKQYLHDGQCCDLCQPGSRLTSHCTALEKTQCHPCDSGEFSAQWNREIRCHQHRHCEPNQGLRVKKEGTAESDTVCTCKEGQHCTSKDCEACAQHTPCIPGFGVMEMATETTDTVCHPCPVGFFSNQSSLFEKCYPWTSCEDKNLEVLQKGTSQTNVICGLKSRMR
# notes: also called mCD40
# B3: PD-1_IgG4_OX40L (1) (Fc fusion)
# chain: LDSPDRPWNPPTFSPALLVVTEGDNATFTCSFSNTSESFVLNWYRMSPSNQTDKLAAFPEDRSQPGQDCRFRVTQLPNGRDFHMSVVRARRNDSGTYLCGAISLAPKAQIKESLRAELRVTERRAEVPTAHPSPSPRPAGQFQSKYGPPCPSCPAPEFLGGPSVFLFPPKPKDTLMISRTPEVTCVVVDVSQEDPEVQFNWYVDGVEVHNAKTKPREEQFNSTYRVVSVLTVLHQDWLSGKEYKCKVSSKGLPSSIEKTISNATGQPREPQVYTLPPSQEEMTKNQVSLTCLVKGFYPSDIAVEWESNGQPENNYKTTPPVLDSDGSFFLYSRLTVDKSSWQEGNVFSCSVMHEALHNHYTQKSLSLSLGKIEGRMDQVSHRYPRIQSIKVQFTEYKKEKGFILTSQKEDEIMKVQNNSVIINCDGFYLISLKGYFSQEVNISLHYQKDEEPLFQLKKVRSVNSLMVASLTYKDKVYLNVTTDNTSLDDFHVNGGELILIHQNPGEFCVL
# B4: OX40-His (Example 11) (receptor, not shown: small tags and cut ends)
# chain: VTARRLNCVKHTYPSGHKCCRECQPGHGMVSRCDHTRDTLCHPCETGFYNEAVNYDTCKQCTQCNHRSGSELKQNCTPTQDTVCRCRPGTQPRQDSGYKLGVDCVPCPPGHFSPGNNQACKPWTNCTLSGKQTRHPASDSLDAVCEDRSLLATLLWETQRPTFRPTTVQSTTVWPRTSELPSPPTLVTPEGP
# B5: murine PD-1-Fc-OX40L chimeric protein (Fc fusion, UniProt Q02242 25-169, looked up)
# chain: LEVPNGPWRSLTFYPAWLTVSEGANATFTCSLSNWSEDLMLNWNRLSPSNQTEKQAAFCNGLSQPVQDARFQIIQLPNRHDFHMNILDTRRNDSGIYLCGAISLHPKAKIEESPGAELVVTERILETSTRYPSPSPKPEGRFQGMSSSPAKDPPIQRLRGAVTRCEDGQLFISSYKNEYQTMEVQNNSVVIKCDGLYIIYLKGSFFQEVKIDLHFREDHNPISIPMLNDGRRIVFTVVASLAFKDKVYLTVNAPDTLCEHLQINDGELIVVQLTPGYCAPEGSYHSTVNQVPL
# notes: extracellular domain; also called mPD-1-Fc-OX40L; not shown: Fc linker of the murine construct is not specified
# What was measured:
# [1] = target: T3, murine CD40 on CHOK1 cells (murine, UniProt P27512 20-289); assay: flow cytometry on CHOK1/mCD40 cells
# T3 construct: whole, on cells; also called mCD40; CHOK1/mCD40
# T3 sequence (P27512 20-289): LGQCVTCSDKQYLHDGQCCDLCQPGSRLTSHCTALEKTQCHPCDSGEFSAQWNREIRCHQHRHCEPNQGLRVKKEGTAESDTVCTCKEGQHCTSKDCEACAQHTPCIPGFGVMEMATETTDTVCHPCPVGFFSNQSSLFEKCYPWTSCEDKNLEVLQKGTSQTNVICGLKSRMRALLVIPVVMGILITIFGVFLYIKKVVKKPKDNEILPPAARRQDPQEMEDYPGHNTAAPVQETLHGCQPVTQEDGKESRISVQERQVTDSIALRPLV
# Text: Cells were collected, washed, and stained with antibodies for the detection of the chimeric protein binding by flow cytometry.
# [2] = target: B1; assay: SPR
# [3] = target: T1, OX40 on HeLa cells (HeLa-OX40); assay: FACS on HeLa-OX40 cells
# [4] = target: PD-L1 on CHO cells (CHO-PD-L1) (Homo sapiens (Human), UniProt Q9NZQ7 19-290); assay: FACS on CHO-PD-L1 cells
# Sequence of PD-L1 on CHO cells (CHO-PD-L1) (Q9NZQ7 19-290 limits assumed, form in doubt): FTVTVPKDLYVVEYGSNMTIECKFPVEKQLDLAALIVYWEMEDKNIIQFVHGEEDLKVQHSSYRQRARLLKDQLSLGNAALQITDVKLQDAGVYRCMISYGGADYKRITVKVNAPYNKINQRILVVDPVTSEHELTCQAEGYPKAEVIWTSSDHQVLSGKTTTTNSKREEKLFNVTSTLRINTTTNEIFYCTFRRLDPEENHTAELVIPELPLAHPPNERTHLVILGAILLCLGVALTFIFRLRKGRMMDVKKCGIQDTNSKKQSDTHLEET
# [5] = target: B5; assay: SPR, BioRad ProteOn XPR 360, His-tagged target on chip
# [6] = target: T2, FcRn-His (Example 11); assay: as above
binder,measurement,setting,value
B1,EC50,[1],20.2 nM
B2,Kd,[2],0.756 nM
B3,EC50,[3],6 nM
same,EC50,[4],27 nM
B4,Kd,[5],9.62 nM
B5,Kd,[6],55.6 nM
same,koff,[6],0.00262 s⁻¹
same,kon,[6],47200 M⁻¹ s⁻¹
